Experimental data reported in US20100196361A1, “Method of inhibition of vascular development using an antibody” (DYAX CORP., priority 2003, published 2010).

Key:
Tie1 [1] = target: T1, Tie1 (Homo sapiens, UniProt P35590); test: Immunohistochemistry of matched tumor and normal tissue sections; format: binding; conditions: frozen sections
Protocol: To evaluate the binding of E3 to Tie1 in primary tumor and normal tissue the antibody was produced as an IgG and biotin labeled. The E3 antibody and two other anti Tie1 antibodies B2 and D11 were reformatted as full length IgG molecules. Nucleic acids encoding these IgGs were transiently transfected into HEK293T cells. Plasmid preparations for transient cell transfections were performed using the HP-[…]™ MIDI prep kit (Sigma, cat. no. NA0200). HEK293T cells (GenHunter Corp. cat. no. Q401) were seeded 24 hours before transfection; 6×10^6 cells were plated per 10-cm culture dish. Transfections were carried out using LIPOFECTAMINE™ 2000 reagent (Invitrogen, cat. no. 11668019) following the manufacturer's instructions. Five micrograms of plasmid DNA was used per 10-cm dish. Cells were cultured in DMEM (Invitrogen, cat. no. 31966021) supplemented with 10% “ultra-low IgG” fetal calf serum (Invitrogen, cat. no. 16250078), at 37° C., 5% CO2, in a water saturated atmosphere. Conditioned media were harvested 72 hours and 144 hours after transfection, pooled and sterile filtered.
The Tie1 antibodies were biotinylated using the EZ-link Sulfo-NHS-SS-Biotin (Pierce, Cat. 21331). For Tie1/Fc and Tie1-His, the reaction was performed for 2 hours on ice in 50 mM sodium carbonate buffer, pH 9.6, in the presence of a 5-fold molar excess of biotinylating agent. For the antibodies, the reaction was performed for 2 hours on ice in PBS, in the presence of a 15-fold molar excess of EZ-link Sulfo-NHS-SS-Biotin. The reaction was stopped by the addition of Tris-HCl, pH 7.5 (50 mM final concentration) followed by a 1-hour incubation on ice. Samples were then dialyzed against PBS.
Various normal and tumor tissue sections were stained with biotinylated antibodies. A mouse monoclonal anti-Tie1 antibody (7e8) (Alitalo laboratory, University of Helsinki) was used as a positive control. Sections without primary antibody served as negative control. All samples were fresh frozen tissues and staining was performed with the TSA-kit (Perkin-Elmer Life Sciences). After acetone fixation (10-20 min, −20° C.) the slides were treated with 0.73% H2O2 for 10 min to reduce endogenous peroxidase activity followed by blocking for 30 min with TNB buffer. Sections ([…] thick) were incubated with primary antibodies (10 μg/ml) overnight at 4° C. Sections with the mouse monoclonal anti-tie1 antibody (7e8) were treated with biotinylated anti-mouse antibodies (VectaStain) before the addition of streptavidin-HRP. Signal was amplified by using a TSA kit and the visualized by AEC (235 ml NaAc,15 ml AEC (stock solution: 1600 mg 3-amino-9-ethyl-carbazole and 480 ml N-dimethylformamide), 250 μl H2O2).

Tie1 [2] = target: T1, Tie1; test: Immunoprecipitation of Tie1 from HUVEC and platelet lysates; format: binding; conditions: for immunoprecipitation of Tie1 from platelets: activated and inactivated platelets
Protocol: The conclusion from this study was that platelets represent a large pool of Tie1 immunoreactivity which could present a problem for development of Tie1 as a therapeutic target. […] Both activated and inactivated platelets were tested. Anti-Tie1 antibodies B2, D11, E3, the goat polyclonal AF619 (R&D) and negative control antibodies anti-FITC and anti-Streptavidin were used. HUVECS were retrieved from culture dishes by trypsinization and platelets were prepared with the platelet GelSep kit (Biocytex, Marseille, France) kit according to the guidelines of the manufacturer. Per immunoprecipitation experiment 3-5×10^6 and 3×10^8 cells platelets were used for each antibody tested. Platelets and cells were washed with PBS and spun down at 1400 rpm for 4 minutes and supernatant was removed. Then cells were lysed in 1 ml lysis buffer containing 50 mM Tris HCL pH 7.5, 150 mM NaCl, 0.5% Deoxycholic acid (DOC) and 0.5% NP-40 for 5 minutes. The lysed cells were spin down for 10 minutes at 14.000 rpm and 5 μg/ml antibody was added to the supernatant and incubated at 4° C. on a rotator. 100 μl/sample protein A beads (Uppsala, Sweden) were washed 3 times with lysis buffer (centrifugation speed: 15 seconds, 2000 rpm) then cell lysates incubated with antibody were added for 30 minutes 4° C. Then beads were washed three times with washing buffer containing 50 mM Tris HCL pH 7.5, 400 mM NaCl, 0.5% DOC, 0.5% NP-40. Finally, beads are spun down and the pellets was resuspended in an equal amount in sample buffer to perform SDS-page and Western blotting. In Western blotting Tie1 was detected with the polyclonal goat anti-Tie1 antibody.
It has been reported that Tie1 is expressed on platelets (Tsiamis et al. (2000) J. Vasc. Res. 37(6):437). The possibility of platelet immunoreactivity with the E3 anti-Tie1 antibody was investigated by FACs analysis and immunoprecipitation studies. […] In addition, the effect of DX-2200 and DX-2210 on platelet agglutination and aggregation was investigated. […]

HUVEC = test: Flow cytometry on HUVEC control cells; format: binding, human
Protocol: Specific binding of the Tie1 antibodies and of control Mabs to mouse endothelial cells was measured by flow cytometry analysis (FACSscan, Becton Dickinson, Oxnard, Epics, Coulter). Mouse endothelial cell lines MS1, Le-2, Bend3, SVEC (ATCC, Rockville) and Tie1 transfected Le-2 cells were stained. Cell staining was modified from existing protocols. About 200,000 cells were used in each experiment: after trypsinization, cells were washed one time in PBS and resuspended PBS, 10% heat inactivated human serum (incubation buffer). To test specificity, antibodies were incubated at different dilutions for 1 h at room temperature. Cells were spun down by centrifugation for 3 min at 611 g. Between incubations cells were washed twice with PBS. […] After the final incubation step bound antibodies were detected by means of flow cytometry on a FACSCan and Epics Altra (Becton Dickinson, Oxnard, Coulter) and results analyzed.
Intracellular Tie1 was measured as described above, except for the addition of Saponin to the incubation buffer to a final concentration of 0.1% during incubations. […] The binding pattern in mouse cell lines detected by flow cytometry is different from the binding pattern in HUVEC in that in mouse cells there is a greater cell surface staining than that compared to primary human endothelial cell lines. […]

T1 sequence (P35590 22-1138): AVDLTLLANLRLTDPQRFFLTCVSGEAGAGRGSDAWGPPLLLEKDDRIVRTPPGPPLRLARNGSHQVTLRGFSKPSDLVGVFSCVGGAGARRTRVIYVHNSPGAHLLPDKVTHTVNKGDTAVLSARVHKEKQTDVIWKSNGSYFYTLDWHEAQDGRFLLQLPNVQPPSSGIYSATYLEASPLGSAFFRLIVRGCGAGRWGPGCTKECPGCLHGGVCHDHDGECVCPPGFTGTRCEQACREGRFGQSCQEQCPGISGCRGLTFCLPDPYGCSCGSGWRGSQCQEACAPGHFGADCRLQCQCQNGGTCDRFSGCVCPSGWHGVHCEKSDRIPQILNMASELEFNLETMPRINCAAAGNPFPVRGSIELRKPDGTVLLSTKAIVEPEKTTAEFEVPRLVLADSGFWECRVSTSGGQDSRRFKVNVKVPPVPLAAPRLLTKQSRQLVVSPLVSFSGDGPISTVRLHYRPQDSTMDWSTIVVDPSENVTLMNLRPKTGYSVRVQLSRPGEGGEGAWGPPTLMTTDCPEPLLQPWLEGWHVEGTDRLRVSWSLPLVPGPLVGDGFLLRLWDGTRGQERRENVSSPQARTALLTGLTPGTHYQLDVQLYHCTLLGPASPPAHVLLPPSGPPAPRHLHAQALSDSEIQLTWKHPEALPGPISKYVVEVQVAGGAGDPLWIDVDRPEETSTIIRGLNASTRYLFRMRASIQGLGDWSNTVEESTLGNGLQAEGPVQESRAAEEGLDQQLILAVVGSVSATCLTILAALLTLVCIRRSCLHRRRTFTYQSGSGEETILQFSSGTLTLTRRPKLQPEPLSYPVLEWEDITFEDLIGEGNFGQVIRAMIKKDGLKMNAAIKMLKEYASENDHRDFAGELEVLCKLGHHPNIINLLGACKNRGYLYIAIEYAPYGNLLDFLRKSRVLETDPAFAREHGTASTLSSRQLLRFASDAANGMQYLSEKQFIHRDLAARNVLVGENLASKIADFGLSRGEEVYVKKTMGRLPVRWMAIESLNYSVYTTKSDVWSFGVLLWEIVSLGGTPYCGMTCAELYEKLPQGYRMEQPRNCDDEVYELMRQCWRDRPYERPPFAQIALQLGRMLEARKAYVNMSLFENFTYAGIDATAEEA

Molecule | staining of breast (mammary tissue) (Tie1 [1]; 10 μg/ml) | staining of breast carcinoma (Tie1 [1]; 10 μg/ml) | staining of hypernephroma tissue (Tie1 [1]; 10 μg/ml) | staining of kidney (Tie1 [1]; 10 μg/ml) | staining of lung carcinoma (Tie1 [1]; 10 μg/ml) | staining of melanoma tissue (Tie1 [1]; 10 μg/ml) | staining of normal lung (Tie1 [1]; 10 μg/ml) | staining of normal skin (Tie1 [1]; 10 μg/ml) | tissue specificity of vessel staining in normal tissues (Tie1 [1]; biotinylated antibody 10 μg/ml) | immunoprecipitation of Tie1 from HUVEC (Tie1 [2]; 5 μg/ml antibody, detection with polyclonal goat anti-Tie1) | immunoprecipitation of Tie1 from platelets (Tie1 [2]) | immunoprecipitation of Tie1 from platelets (Tie1 [2]; listed as DX-2200) | staining of HUVEC control cells (HUVEC)
E3: human anti-Tie1 antibody from phage Fab library, reformatted as IgG; HC variable SEQ ID NO:114, LC variable SEQ ID NO:116 (antibody, V domains shown, IgG constant regions; Synthetically generated peptide) VH: EVQLLESGGGLVQPGGSLRLSCAASGFTFSMYGMVWVRQAPGKGLEWVSVISPSGGNTGYADSVKGRFTISRDNSKNTLYLQVNSLRAEDTAVYYCARAPRGYSYGYYYWGQGTLVTVSSASTKGPSVFPLAPSSKSTSGG VL: DIQMTQSPLSLSASVGDRVTITCRASQGIGHYLAWYQQKPGKVPKLLIYTASTLQSGVPSRFSGSGSGTDFTLTINSLQPEDVATYYCQQFNSYPHTFGQGTRLDIK | brightest staining in the veins and capillaries of the mammary tissue | stained also other structures in addition to vessels | clear staining | stained kidney tubules in addition to the vessels | stained structures other than vessels | also stained other surrounding structures | stained especially clearly the large veins in the lung | stained blood vessels very faintly | stained vessels in the lung and kidney but not in the skin | able to immunoprecipitate Tie1 in HUVEC | not in platelets | nor did it immunoprecipitate Tie1 from platelet extracts | 
DX-2210: E3 antibody in which the light chain has been germlined (antibody, V domains shown) VH: EVQLLESGGGLVQPGGSLRLSCAASGFTFSMYGMVWVRQAPGKGLEWVSVISPSGGNTGYADSVKGRFTISRDNSKNTLYLQVNSLRAEDTAVYYCARAPRGYSYGYYYWGQGTLVTVSSASTKGPSVFPLAPSSKSTSGG VL: DIQMTQSPSSLSASVGDRVTITCRASQGIGHYLAWYQQKPGKVPKLLIYTASTLQSGVPSRFSGSGSGTDFTLTISSLQPEDVATYYCQQFNSYPHTFGQGTRLEIK |  |  |  |  |  |  |  |  |  |  |  |  | stained positively
